The values that follow come from patent US20070104676A1, “Cosmetic and/or dermatological preparations containing an extract from the seeds of plants of the genus adenanthera” (COGNIS FRANCE S.A., priority 2003, published 2007).

One experiment has as its target pancreas elastase (Sus scrofa, UniProt P00772). Description: Inhibition of elastase activity. The format is biochemical. As for the experimental part: In order to test the effectiveness of the plant extract in inhibiting the release of elastase, pancreas elastase (a serine protease) was investigated and, as substrate, elastin was marked with a chromogenic synthetic substrate. The system was incubated with the active principles for 30 minutes at room temperature and then, after centrifuging, the optical density of the dye was determined at 410 nm. The extracts were used in a quantity of 0.3% by weight. The results are set out in Table 1 where they are expressed relative to a control as standard (=0%); a1-antitrypsin was used as the standard.

Another experiment addresses T1, Human plasmin (Homo sapiens, UniProt P00747).
T1 construct: purchased Sigma
Description: Inhibition of plasmin activity (quenched fluorescent casein hydrolysis). The format is biochemical. The note with it: reference substance. On the procedure: Method: Human plasmin obtained from Sigma was mixed with the extract in a quantity of 0.3% by weight and incubated for a few minutes at 20° C. Natural casein marked with a quenched fluorescence probe (Interchim natural) was then added. The protease-catalyzed hydrolysis degraded the quenching and produced a fluorescence signal. The proportion of hydrolyzed substrate was determined by measuring the increased green fluorescence over a period of 30 minutes. […] The inhibition of enzyme activity was evaluated by comparison with a control and a reference substance SBT1 (Sigma).

T1 sequence (P00747 581-810 limits assumed): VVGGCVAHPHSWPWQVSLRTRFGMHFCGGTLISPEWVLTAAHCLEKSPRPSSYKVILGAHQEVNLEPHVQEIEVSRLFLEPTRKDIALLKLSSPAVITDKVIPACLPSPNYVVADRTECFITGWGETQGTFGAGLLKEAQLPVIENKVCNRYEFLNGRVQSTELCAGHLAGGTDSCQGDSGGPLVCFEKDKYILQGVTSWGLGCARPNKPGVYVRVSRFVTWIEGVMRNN
T1 sequence (P00747 97-580 partner limits assumed): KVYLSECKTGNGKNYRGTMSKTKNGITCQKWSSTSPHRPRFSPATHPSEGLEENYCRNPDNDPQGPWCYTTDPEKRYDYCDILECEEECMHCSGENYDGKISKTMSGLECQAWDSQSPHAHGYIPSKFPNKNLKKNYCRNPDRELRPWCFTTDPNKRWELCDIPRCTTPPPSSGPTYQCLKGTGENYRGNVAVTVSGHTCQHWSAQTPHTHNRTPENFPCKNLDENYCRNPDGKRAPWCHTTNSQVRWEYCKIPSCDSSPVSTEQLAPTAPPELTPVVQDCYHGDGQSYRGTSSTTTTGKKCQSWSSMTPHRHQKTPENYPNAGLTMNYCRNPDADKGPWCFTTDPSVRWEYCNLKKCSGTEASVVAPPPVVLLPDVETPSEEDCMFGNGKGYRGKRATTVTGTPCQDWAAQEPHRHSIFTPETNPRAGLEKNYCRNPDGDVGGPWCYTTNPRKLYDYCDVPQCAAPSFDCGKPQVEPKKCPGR
Chain of pancreas elastase (P00772 27-266): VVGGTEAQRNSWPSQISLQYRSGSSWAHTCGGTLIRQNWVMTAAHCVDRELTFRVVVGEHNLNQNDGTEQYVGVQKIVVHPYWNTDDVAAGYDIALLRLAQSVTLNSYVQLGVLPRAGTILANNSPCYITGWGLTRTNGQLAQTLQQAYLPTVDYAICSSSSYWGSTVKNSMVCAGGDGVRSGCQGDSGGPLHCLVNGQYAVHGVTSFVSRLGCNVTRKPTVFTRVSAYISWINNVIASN

As to “α1-anti-trypsin: Standard used in the elastase inhibition test”, the “IC50 (elastase inhibition, standard)” value with pancreas elastase is listed as “IC50 = 0.13 mg/ml”.

B1: SBTI: Reference substance (Sigma) in the plasmin inhibition test (protein, UniProt P01070 25-205, looked up)
Trypsin inhibitor A: DFVLDNEGNPLENGGTYYILSDITAFGGIRAAPTGNERCPLTVVQSRNELDKGIGTIISSPYRIRFIAEGHPLSLKFDSFAVIMLCVGIPTEWSVVEDLPEGPAVKIGENKDAMDGWFRLERVSDDEFNNYKLVFCPQQAEDDKCGDIGISIDHDDGTRRLVVSKNKPLVVQFQKLDKESL
With B1, the “IC50 (plasmin inhibition, standard)” value with Human plasmin came out at 0.006%.
